“And” between values parts separate entries of the source, which are not always exact repeats. Identical values can stand only once.
molecular target: T1, PrP^Sc, pathogenic prion protein in brain homogenate of RML PrP^Sc+ Balb-c mice (mouse), P04925; test: bead pull-down from PrP^Sc+ mouse brain homogenate; ELISA
T1 sequence (P04925 23-230 limits assumed): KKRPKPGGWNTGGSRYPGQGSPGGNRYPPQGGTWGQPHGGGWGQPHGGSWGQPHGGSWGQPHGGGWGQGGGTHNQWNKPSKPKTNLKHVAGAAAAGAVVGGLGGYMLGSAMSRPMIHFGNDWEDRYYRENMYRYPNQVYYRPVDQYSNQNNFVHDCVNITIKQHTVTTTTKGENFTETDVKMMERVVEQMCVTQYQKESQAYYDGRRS

Binder | ELISA A405nm [A405nm]
KKRPKGGG (modifications not checked) [Peptide reagent SEQ ID NO:120] | 0.631
KKRPKGGG (modifications not checked) [Peptide reagent SEQ ID NO:119] | 0.61
KKRPKGGG (modifications not checked) [Peptide reagent SEQ ID NO:122] | 0.503
KKRPKGGG (modifications not checked) [Peptide reagent SEQ ID NO:121] | 0.509

molecular target: T1, PrP^Sc, pathogenic prion protein in …; test: bead pull-down, NaCl dissociation of bound PrP^Sc; Western blot

Binder | recovery rate following 1.0 M NaCl elution
GGGKKKKKKKK (modifications not checked) [Peptide reagent SEQ ID NO:85] | 40% and 50%
GGGKKRPKPGG (modifications not checked) [Peptide reagent SEQ ID NO:68] | 40% and 50%
